Laboratory results reported in PMC9800282.

Biological target: vitronectin (VTN) (UniProt P04004)
Experiment: SPR; Biacore T200; LNA043 (~3,000 RU), FN1 or VTN (~500 RU) amine-coupled to CM5; integrins as analytes 0.6–10 μM, single-cycle kinetics, 37 °C, 1× HBS-N, 0.005% Tween 20, 1 mM MgCl2, 1 mM CaCl2, 2 mM MnCl2; 1:1 binding fit

vitronectin (VTN), sequence (P04004 20-478): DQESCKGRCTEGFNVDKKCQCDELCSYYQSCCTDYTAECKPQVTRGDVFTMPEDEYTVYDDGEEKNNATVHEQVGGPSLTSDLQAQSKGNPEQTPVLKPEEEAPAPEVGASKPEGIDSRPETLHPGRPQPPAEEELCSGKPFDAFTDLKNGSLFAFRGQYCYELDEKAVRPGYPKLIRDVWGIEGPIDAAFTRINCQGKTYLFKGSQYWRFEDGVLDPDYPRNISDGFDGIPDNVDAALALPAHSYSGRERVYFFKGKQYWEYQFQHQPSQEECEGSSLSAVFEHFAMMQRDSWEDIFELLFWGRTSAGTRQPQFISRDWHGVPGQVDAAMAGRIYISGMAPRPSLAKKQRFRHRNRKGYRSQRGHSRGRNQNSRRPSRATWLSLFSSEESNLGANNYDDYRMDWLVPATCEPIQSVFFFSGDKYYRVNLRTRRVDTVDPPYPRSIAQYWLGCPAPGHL

Kd: 997 nM
Substance: recombinant human αvβ3 integrin (from UniProt P06756 31-1048; P05106 27-718) (complex)
